Reference: PMC10350107

Key:
[1] = target: human MCM8–9 complex, wild type (FLAG-MCM8 with MBP-MCM9, co-expressed) (human) (UniProt Q9UJA3)
[2] = tested on: MCM8 (FLAG-MCM8);MCM9 (MBP-MCM9) (human;human); assay: EMSA; details: EMSA: 25 mM Tris acetate pH 7.5, 3 mM EDTA (or 4 mM ATP + 1 mM Mg acetate), 1 mM DTT, 0.1 mg/ml BSA, 1 nM DNA (100 ng for plasmid-length DNA), 15 min on ice …

Chain of human MCM8–9 complex, wild type (FLAG-MCM8 with MBP-MCM9, co-expressed) (human) (Q9UJA3 whole entry, chain 1 of 2): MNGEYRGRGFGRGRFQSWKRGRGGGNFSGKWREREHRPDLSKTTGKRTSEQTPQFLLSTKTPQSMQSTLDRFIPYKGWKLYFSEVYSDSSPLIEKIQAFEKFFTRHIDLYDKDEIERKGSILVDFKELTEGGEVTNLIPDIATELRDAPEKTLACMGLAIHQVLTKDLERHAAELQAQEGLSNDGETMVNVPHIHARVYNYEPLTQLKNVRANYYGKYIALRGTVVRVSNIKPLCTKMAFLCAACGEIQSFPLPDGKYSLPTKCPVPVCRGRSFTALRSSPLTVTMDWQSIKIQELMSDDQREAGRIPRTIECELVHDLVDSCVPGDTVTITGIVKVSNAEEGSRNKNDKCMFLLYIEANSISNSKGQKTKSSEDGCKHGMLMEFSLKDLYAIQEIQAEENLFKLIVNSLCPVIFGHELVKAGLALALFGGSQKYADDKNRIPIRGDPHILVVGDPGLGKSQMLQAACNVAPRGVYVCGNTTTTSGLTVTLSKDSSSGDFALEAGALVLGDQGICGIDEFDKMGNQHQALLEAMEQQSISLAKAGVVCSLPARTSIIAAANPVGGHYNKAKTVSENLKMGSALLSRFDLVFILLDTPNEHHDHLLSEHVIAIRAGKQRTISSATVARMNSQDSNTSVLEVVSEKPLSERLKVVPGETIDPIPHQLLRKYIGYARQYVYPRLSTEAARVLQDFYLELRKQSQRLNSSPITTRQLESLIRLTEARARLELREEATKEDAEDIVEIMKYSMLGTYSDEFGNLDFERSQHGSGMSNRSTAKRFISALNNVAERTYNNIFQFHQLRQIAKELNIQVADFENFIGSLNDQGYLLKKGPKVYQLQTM
Chain of human MCM8–9 complex, wild type (FLAG-MCM8 with MBP-MCM9, co-expressed) (human) (Q9NXL9 whole entry, chain 2 of 2, further chain): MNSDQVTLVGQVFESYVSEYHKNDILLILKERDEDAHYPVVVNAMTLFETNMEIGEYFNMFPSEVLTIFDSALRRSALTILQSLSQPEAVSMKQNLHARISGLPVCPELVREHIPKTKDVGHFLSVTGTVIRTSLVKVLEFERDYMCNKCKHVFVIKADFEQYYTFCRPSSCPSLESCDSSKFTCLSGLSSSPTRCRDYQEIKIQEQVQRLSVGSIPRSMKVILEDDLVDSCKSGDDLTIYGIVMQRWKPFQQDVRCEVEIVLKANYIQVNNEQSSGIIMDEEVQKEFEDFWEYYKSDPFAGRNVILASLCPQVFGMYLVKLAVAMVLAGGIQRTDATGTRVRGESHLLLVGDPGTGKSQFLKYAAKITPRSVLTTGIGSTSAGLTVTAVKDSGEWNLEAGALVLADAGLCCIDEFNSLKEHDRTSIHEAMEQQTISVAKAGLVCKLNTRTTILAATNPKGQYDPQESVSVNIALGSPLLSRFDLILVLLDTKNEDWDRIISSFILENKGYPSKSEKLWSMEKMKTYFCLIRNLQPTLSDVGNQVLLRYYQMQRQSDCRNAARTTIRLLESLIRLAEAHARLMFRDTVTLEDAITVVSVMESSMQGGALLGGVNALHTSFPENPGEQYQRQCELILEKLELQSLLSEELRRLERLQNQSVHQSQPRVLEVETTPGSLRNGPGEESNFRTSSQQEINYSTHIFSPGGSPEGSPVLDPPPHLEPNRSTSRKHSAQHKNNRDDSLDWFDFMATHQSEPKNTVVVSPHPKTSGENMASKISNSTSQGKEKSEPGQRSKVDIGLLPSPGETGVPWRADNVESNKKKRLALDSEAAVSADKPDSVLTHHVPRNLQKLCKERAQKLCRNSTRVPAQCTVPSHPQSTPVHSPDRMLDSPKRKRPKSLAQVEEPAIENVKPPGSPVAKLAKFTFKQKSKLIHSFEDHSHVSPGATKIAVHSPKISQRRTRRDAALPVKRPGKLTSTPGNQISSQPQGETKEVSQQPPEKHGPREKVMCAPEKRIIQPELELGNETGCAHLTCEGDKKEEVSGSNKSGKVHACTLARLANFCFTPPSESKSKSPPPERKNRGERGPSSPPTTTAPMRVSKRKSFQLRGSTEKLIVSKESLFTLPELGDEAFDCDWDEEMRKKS

| ATP hydrolysis by MCM8–9 (200 nM) without or with HROB, DNA as co-factor; stimulation 1.5 to 2-fold [1] | Substance | K half [2] |
| --- | --- | --- |
| 1.5 to 2 fold | HROB-FLAG, wild type human HROB (homologous recombination factor with OB-fold) (from UniProt Q8N3J3-4 1-646) (natural protein) | – |
| – | Holliday junction (PC1253/PC1254/PC1255/PC1256) | 55 nM |
| – | Y-structure (PC1254/PC1253) | 55 nM |
